Data published in paper PMC6811625, “Protein folding while chaperone bound is dependent on weak interactions” (Nature Communications, 2019).

B1: wild-type Gallus gallus Fyn SH3 domain (T85-D142) (domain or fragment)
chain: not shown
notes: 7 residues added to the N terminus of the domain; Tyrosine-protein kinase Fyn, Gallus gallus, SH3 domain, residues T85-D142; a single arginine added to the C terminus of the domain; The same protein was measured native and unfolded (diluted from 9.5 M urea); the quantity of each row says which state; Primer 1 has a BamHI site (GGA TCC, Gly-Ser) before GAMVQIS, so further residues may remain after …
B2: SpyQ100L (natural protein, E. coli, UniProt P77754 24-161, looked up)
chain: ADTTTAAPADAKPMMHHKGKFGPHQDMMFKDLNLTDAQKQQIREIMKGQRDQMKRPPLEERRAMHDIIASDTFDKVKAEAQIAKMEEQRKANMLAHMETLNKIYNILTPEQKKQFNANFEKRLTERPAAKGKMPATAE
notes: Spy of E. coli with Q100L; also called Spy variant Q100L; source: E. coli BL21 (DE3), purified (Ni-His Trap, HiTrap Q, Superdex 75); not shown: His, N-terminal, cleaved; SUMO, N-terminal, cleaved
B3: wild-type Spy (natural protein, E. coli, UniProt P77754 24-161, looked up)
chain: ADTTTAAPADAKPMMHHKGKFGPHQDMMFKDLNLTDAQKQQIREIMKGQRDQMKRPPLEERRAMHDIIASDTFDKVKAEAQIAKMEEQRKANMLAHMETQNKIYNILTPEQKKQFNANFEKRLTERPAAKGKMPATAE
notes: ATP-independent periplasmic chaperone Spy of E. coli; also called SpyWT; Spy dimer; source: E. coli BL21 (DE3), purified (Ni-His Trap, HiTrap Q, Superdex 75); not shown: His, N-terminal, cleaved; SUMO, N-terminal, cleaved
B4: SpyH96L (natural protein, E. coli, UniProt P77754 24-161, looked up)
chain: ADTTTAAPADAKPMMHHKGKFGPHQDMMFKDLNLTDAQKQQIREIMKGQRDQMKRPPLEERRAMHDIIASDTFDKVKAEAQIAKMEEQRKANMLALMETQNKIYNILTPEQKKQFNANFEKRLTERPAAKGKMPATAE
notes: Spy of E. coli with H96L; also called Spy variant H96L; source: E. coli BL21 (DE3), purified (Ni-His Trap, HiTrap Q, Superdex 75); not shown: His, N-terminal, cleaved; SUMO, N-terminal, cleaved

Key:
Details in all cases: both partners purified
SpyH96L = molecular target: B4; test: ITC; MicroCal iTC200, 25 °C; HN buffer (40 mM HEPES pH 7.5, 50 mM NaCl) with 0.83 M urea; 2.4 mM SH3 in the syringe titrated into 100 μM Spy or Spy variant in the cell; one-site model; native SH3
wild-type Spy [1] = molecular target: B3; test: as above
SpyQ100L = molecular target: B2; test: as above
wild-type Spy [2] = molecular target: B3; test: as above; remark: listed apart in the source
[3] = molecular target: B1; test: stopped-flow tryptophan fluorescence kinetics with global fitting; KinTek SF-300X, 25 °C; HN buffer, 0.83 M urea after mixing; 4.8 μM SH3, refolded from 9.5 M urea or native, mixed 1:10.5 with varied Spy (concentrations as dimer); global fit (KinTek Explorer) to the mechanism that allows folding while bound; k-3 fixed at 1000 s^-1

Binder | Kd (SpyH96L) [µM] | Kd (wild-type Spy [1]) [µM] | Kd (SpyQ100L) [µM] | stoichiometry N (wild-type Spy [2]) | Kd (native SH3) [3] [µM] | Kd (unfolded SH3) [3] [µM] | k2 (association, unfolded SH3) [3] [µM⁻¹ s⁻¹] | k3 (association, native SH3) [3] [µM⁻¹ s⁻¹] | k-2 (dissociation, unfolded SH3) [3] [s⁻¹]
B1 | 71 ± 19 | 50 ± 6 | 107 ± 25 | 1 |  |  |  |  | 
B2 |  |  |  |  | 17 ± 1 | 0.04 ± 0.003 | 171 ± 8 | 60 ± 2 | 6.8 ± 0.3
B3 |  |  |  |  | 83 ± 55 | 2.9 ± 0.3 | 14 ± 1 | 12 ± 8 | 39 ± 3
B4 |  |  |  |  | 11 ± 1 | 0.76 ± 0.05 | 23 ± 1 | 91 ± 10 | 17.4 ± 0.7
